Measurements taken from paper PMC10927535.

T1: LSH3-DBD S45-S190 (Arabidopsis thaliana, UniProt O82268 45-190)
T1 sequence: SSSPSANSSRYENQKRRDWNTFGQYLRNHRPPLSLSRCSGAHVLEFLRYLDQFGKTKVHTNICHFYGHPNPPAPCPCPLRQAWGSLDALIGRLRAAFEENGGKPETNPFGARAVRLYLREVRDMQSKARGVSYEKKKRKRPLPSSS

T2: LSH1-DBD M1-L166 (Arabidopsis thaliana, UniProt Q6NNI3 1-166)
T2 sequence: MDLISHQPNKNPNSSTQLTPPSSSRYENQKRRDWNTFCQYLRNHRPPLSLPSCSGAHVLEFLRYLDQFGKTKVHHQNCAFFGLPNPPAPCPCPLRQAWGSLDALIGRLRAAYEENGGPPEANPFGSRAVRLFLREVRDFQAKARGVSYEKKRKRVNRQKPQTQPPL


What was measured:
[1] = biological target: T1, LSH3-DBD S45-S190; experiment: EMSA
[2] = biological target: T2, LSH1-DBD M1-L166; experiment: EMSA
[3] = biological target: T1, LSH3-DBD S45-S190; experiment: crystal structure

| Binder | Kd [1] [nM] | Kd [2] [nM] | binding result [3] |
| --- | --- | --- | --- |
| WT ALOG motif probe (perfect motif) (dsDNA) DNA 1: GCGTAGTTTACTGTTGACGTAG DNA 2: CTACGTCAACAGTAAACTACG | 28 | < 50 |  |
| LSH perfect motif 17 bp (oPR799/oPR800) (dsDNA) DNA 1: TAGTTTACTGTTGACGT DNA 2: ACGTCAACAGTAAACTA |  |  | binds |
